From article PMC6564026, “An autoinducer-independent RhlR quorum-sensing receptor enables analysis of RhlR regulation”

What was measured:
MBP-RhlR:mBTL = MBP-RhlR:mBTL (Pseudomonas aeruginosa, UniProt P54292 1-241); assay: ITC; mBTL; EMSA: 20 mM Tris-HCl pH 8, 50 mM KCl, 1 mM EDTA, 1 mM DTT, 1.5 mg/mL poly-IC, 50 ug/mL BSA, 10% glycerol, room temp 15 min; ITC: 25 C, S200 buffer (200 mM NaCl, 20 mM Tris-HCl pH 8, 1 mM DTT), 20 uM DNA titrated into 1 uM protein; conditions: protein: recombinant; tags: N-terminal MBP (pMALC2x); chain copies: 2; duplex not explicitly stated
MBP-RhlR* = MBP-RhlR* (Pseudomonas aeruginosa, UniProt P54292 1-241, Y64F;W68F;V133F); assay: ITC; no ligand; EMSA: 20 mM Tris-HCl pH 8, 50 mM KCl, 1 mM EDTA, 1 mM DTT, 1.5 mg/mL poly-IC, 50 ug/mL BSA, 10% glycerol, room temp 15 min; ITC: 25 C, S200 buffer (200 mM NaCl, 20 mM Tris-HCl pH 8, 1 mM DTT), 20 uM DNA titrated into 1 uM protein; conditions: protein: recombinant; tags: N-terminal MBP (pMALC2x); chain copies: 2; duplex not explicitly stated

B1: rhl-box consensus (dsDNA)
DNA 1: ACCTGCCAGATTTCGCAGGT
DNA 2: ACCTGCGAAATCTGGCAGGT
Kd (MBP-RhlR:mBTL): 23 nM
Kd (MBP-RhlR*): 34 nM
